Measured values reported in patent US20210063414A1, “METHODS FOR PREVENTING AND/OR TREATING BONE LOSS CONDITIONS BY MODULATING IRISIN” (Dana-Farber Cancer Institute, Inc., priority 2018, published 2021).

Experiments:
Experiment in all cases: Crosslinking/co-immunoprecipitation/mass spectrometry (TMT quantitative proteomics) to identify irisin receptors
Type in all cases: binding
[1] = biological target: T1, MLO-Y4 cell surface proteins (Mus musculus, UniProt P62880); settings: co-precipitated protein Gnb2 (GBB2_MOUSE)
T1 construct: endogenous in cells; host or cells: MLO-Y4
Summary of the method: (§1)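 Relative protein abundance came from 6-plex TMT MS3 quantitation on an Orbitrap Fusion Lumos, after in-gel trypsin digestion of Coomassie-stained SDS-PAGE lanes. Input was a Ni-NTA pulldown (250 mM imidazole elution) of lysates from murine MLO-Y4 cells. These cells were treated on ice with His-tagged irisin or adipsin (10 nM, 20 min) in serum-free medium, then crosslinked with 1.5 mM DTSSP for 30 min.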

[2] = biological target: T2, MLO-Y4 cell surface proteins (Mus musculus, UniProt Q921G7); settings: co-precipitated protein Etfdh (ETFD_MOUSE)
T2 construct: endogenous in cells; host or cells: MLO-Y4
T2 sequence (Q921G7 33-616): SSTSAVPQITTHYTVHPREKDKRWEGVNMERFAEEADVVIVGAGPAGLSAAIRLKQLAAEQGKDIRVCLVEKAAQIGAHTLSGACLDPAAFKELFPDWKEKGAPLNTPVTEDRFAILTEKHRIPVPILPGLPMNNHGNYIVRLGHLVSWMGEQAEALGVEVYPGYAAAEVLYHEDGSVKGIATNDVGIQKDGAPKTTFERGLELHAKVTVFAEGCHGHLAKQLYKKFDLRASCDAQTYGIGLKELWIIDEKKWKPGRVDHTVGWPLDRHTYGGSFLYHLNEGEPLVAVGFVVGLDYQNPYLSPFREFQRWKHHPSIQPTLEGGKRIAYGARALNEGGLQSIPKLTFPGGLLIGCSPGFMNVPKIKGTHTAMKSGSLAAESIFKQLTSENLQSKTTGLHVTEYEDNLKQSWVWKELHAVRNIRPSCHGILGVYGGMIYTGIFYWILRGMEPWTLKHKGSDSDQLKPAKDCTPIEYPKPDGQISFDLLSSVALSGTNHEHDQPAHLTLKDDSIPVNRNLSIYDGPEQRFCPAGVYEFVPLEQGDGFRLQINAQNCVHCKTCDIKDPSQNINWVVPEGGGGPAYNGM
Summary of the method: as §1

[3] = biological target: T3, MLO-Y4 cell surface proteins (Mus musculus, UniProt Q3U1J4); settings: co-precipitated protein Ddb1 (DDB1_MOUSE)
T3 construct: endogenous in cells; host or cells: MLO-Y4
Summary of the method: as §1

[4] = biological target: T4, MLO-Y4 cell surface proteins (Mus musculus, UniProt Q791V5); settings: co-precipitated protein Mteh2 (MTCH2_MOUSE)
T4 construct: endogenous in cells; host or cells: MLO-Y4
T4 sequence (Q791V5 1-303): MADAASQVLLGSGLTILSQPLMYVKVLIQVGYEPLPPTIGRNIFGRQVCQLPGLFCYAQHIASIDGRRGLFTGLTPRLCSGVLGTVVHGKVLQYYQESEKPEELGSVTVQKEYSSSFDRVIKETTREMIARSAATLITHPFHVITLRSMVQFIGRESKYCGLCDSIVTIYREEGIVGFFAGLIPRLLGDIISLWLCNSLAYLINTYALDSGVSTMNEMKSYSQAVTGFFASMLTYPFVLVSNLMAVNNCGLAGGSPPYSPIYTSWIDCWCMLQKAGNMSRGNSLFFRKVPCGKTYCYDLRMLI
Summary of the method: as §1

[5] = biological target: T5, MLO-Y4 cell surface proteins (Mus musculus, UniProt P59999); settings: co-precipitated protein Atpc4 (ARPC4_MOUSE)
T5 construct: endogenous in cells; host or cells: MLO-Y4
Summary of the method: as §1

T3 sequence (Q3U1J4 whole entry): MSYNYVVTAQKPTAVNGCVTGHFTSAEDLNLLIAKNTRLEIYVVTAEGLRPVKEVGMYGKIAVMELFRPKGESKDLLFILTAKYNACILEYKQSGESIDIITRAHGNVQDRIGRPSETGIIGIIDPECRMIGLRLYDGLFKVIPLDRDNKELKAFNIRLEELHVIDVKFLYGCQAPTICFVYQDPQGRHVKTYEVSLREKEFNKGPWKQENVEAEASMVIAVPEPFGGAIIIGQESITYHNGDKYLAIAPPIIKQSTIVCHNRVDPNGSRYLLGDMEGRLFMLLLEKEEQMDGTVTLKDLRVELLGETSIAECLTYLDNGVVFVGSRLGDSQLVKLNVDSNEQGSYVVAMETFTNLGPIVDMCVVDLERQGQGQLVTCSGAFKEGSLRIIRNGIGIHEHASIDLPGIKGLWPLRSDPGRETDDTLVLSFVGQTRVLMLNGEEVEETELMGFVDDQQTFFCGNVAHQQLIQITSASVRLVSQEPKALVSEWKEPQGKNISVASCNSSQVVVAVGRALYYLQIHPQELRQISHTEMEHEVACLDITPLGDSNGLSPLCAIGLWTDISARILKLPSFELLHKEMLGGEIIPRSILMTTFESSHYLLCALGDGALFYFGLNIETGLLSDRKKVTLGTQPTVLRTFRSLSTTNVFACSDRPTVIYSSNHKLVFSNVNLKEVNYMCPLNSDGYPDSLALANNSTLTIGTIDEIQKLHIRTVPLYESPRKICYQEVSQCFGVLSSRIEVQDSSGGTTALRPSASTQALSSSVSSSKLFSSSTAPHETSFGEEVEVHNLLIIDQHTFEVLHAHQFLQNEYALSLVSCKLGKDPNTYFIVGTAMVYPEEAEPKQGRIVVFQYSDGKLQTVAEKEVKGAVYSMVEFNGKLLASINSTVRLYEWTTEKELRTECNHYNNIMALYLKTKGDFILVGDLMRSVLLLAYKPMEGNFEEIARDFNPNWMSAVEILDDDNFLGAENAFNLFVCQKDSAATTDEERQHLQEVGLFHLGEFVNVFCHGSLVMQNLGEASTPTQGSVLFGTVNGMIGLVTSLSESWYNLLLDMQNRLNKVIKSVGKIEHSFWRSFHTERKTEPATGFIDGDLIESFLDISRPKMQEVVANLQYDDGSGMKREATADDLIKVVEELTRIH
T1 sequence (P62880 whole entry): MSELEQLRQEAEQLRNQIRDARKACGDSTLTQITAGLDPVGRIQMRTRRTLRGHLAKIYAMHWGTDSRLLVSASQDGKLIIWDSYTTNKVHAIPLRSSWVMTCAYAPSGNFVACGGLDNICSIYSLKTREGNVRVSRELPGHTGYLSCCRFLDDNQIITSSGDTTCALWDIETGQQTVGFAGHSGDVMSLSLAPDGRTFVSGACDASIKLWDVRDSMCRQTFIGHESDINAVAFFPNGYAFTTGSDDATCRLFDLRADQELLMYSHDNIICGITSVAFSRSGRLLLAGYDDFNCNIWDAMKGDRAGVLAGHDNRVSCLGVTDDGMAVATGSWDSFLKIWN

## adipsin
[1]
  TMT signal-to-noise ratio: 294.957
[2]
  TMT signal-to-noise ratio: 57.6477
[3]
  TMT signal-to-noise ratio: 426.44
[4]
  TMT signal-to-noise ratio: 101.527
[5]
  TMT signal-to-noise ratio: 138.296
